Results as given in patent US20190233493A1 (Sanofi, published 2019).
*1 amine or outer side, *2 acyl side, *3 side chain or, on linkers, in order; H or OH if unused. Primed or numbered codes have the meaning given here. Side-chain parts run from the residue outwards. [ ]: non-standard residue; d: D form. The star is where a group is joined. γGlu = O=C(O)[C@H](CCC(=O)[*:2])N[*:1]; Stearoyl = CCCCCCCCCCCCCCCCCC(=O)*; Palmitoyl = CCCCCCCCCCCCCCCC(=O)*; αMeK = C[C@](N)(CCCCN)C(=O)O; Nle = CCCC[C@H](N)C(=O)O; PEG2′ = PEG2 spacer unit; PEG2″ = not defined here; Aib = CC(C)(N)C(=O)O

T1: RXFP1 receptor (UniProt Q9HBX9 1-757, limits assumed)
T1 sequence (looked up): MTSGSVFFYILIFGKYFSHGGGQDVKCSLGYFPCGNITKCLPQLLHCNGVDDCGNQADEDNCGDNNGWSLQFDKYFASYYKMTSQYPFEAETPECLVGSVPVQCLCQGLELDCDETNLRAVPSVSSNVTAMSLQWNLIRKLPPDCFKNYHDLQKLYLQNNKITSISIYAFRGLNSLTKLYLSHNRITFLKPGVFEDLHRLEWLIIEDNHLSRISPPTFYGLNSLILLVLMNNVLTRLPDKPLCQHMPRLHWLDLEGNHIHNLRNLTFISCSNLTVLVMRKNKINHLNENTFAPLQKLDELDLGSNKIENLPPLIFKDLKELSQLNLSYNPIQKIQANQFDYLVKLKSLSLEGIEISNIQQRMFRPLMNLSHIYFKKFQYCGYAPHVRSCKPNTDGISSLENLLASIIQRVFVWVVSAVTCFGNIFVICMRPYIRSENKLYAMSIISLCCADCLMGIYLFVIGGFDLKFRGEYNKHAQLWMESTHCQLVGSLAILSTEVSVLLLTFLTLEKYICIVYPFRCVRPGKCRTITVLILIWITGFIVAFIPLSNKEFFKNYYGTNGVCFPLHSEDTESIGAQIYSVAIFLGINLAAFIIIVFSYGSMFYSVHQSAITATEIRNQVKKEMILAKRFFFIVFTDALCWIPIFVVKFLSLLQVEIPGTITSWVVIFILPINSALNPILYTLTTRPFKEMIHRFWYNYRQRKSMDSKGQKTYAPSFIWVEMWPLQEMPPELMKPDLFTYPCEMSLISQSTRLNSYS


Target: T1, RXFP1 receptor
Test: cell-based or functional assay

Row | Binder | EC50 (nM), OVCAR 5 cells (cAMP) [nM] | EMax, OVCAR 5 cells (cAMP) [%]
1 | Ac-LEGREKVRAQI[Aib][Aib]EG[Nle]STWS[Aib]RKKK([PEG2′-PEG2′-γGlu-Stearoyl])-NH2 [peptide of SEQ ID NO: 56] | 0.51 | 95
2 | Ac-ELEGREKVRAAI[Aib][Aib]EG[Nle]STWS[Aib]RKK([PEG2′-γGlu-γGlu-Palmitoyl])-NH2 [peptide of SEQ ID NO: 54] | 18.6 | 98
3 | Ac-LEGREKVRAQI[Aib][Aib]EG[Nle]STWS[Aib]RKK([PEG2′-γGlu-γGlu-γGlu-Palmitoyl])-NH2 [peptide of SEQ ID NO: 55] | 19.3 | 94
4 | Ac-LEGREKVRAQI[Aib][Aib]EG[Nle]STWS[Aib]RKK(Ac)K([PEG2′-PEG2′-Stearoyl])-NH2 [peptide of SEQ ID NO: 51] | 71.2 | 100
5 | Ac-ELEGREKVRAAI[Aib][Aib]EG[Nle]STWS[Aib]RKK([PEG2′-PEG2′-γGlu-γGlu-Palmitoyl])-NH2 [peptide of SEQ ID NO: 57] | 4.4 | 93
6 | Ac-LEGREKVRAQI[Aib][Aib]EG[Nle]STWS[Aib]RKK([PEG2′-γGlu-Palmitoyl])-NH2 [peptide of SEQ ID NO: 53] | 15.3 | 97
7 | Ac-LEGREKVRAQI[Aib][Aib]EGMSTWS[Aib]RK([γGlu-γGlu-Palmitoyl])-NH2 (SMILES CCCCCCCCCCCCCCCC(=O)N[C@@H](CCC(=O)N[C@@H](CCC(=O)NCCCC[C@H](NC(=O)[C@H](CCCNC(=N)N)NC(=O)C(C)(C)NC(=O)[C@H](CO)NC(=O)[C@H](Cc1c[nH]c2ccccc12)NC(=O)[C@@H](NC(=O)[C@H](CO)NC(=O)[C@H](CCSC)NC(=O)CNC(=O)[C@H](CCC(=O)O)NC(=O)C(C)(C)NC(=O)C(C)(C)NC(=O)[C@@H](NC(=O)[C@H](CCC(N)=O)NC(=O)[C@H](C)NC(=O)[C@H](CCCNC(=N)N)NC(=O)[C@@H](NC(=O)[C@H](CCCCN)NC(=O)[C@H](CCC(=O)O)NC(=O)[C@H](CCCNC(=N)N)NC(=O)CNC(=O)[C@H](CCC(=O)O)NC(=O)[C@H](CC(C)C)NC(C)=O)C(C)C)[C@@H](C)CC)[C@@H](C)O)C(N)=O)C(=O)O)C(=O)O) [peptide of SEQ ID NO: 5] | 86.8 | 105
8 | Ac-ELEGREKVRAAI[Aib][Aib]EG[Nle]STWS[Aib]RKKK([γGlu-γGlu-γGlu-Palmitoyl])-NH2 (SMILES CCCCCCCCCCCCCCCC(=O)N[C@@H](CCC(=O)N[C@@H](CCC(=O)N[C@@H](CCC(=O)NCCCC[C@H](NC(=O)[C@H](CCCCN)NC(=O)[C@H](CCCCN)NC(=O)[C@H](CCCNC(=N)N)NC(=O)C(C)(C)NC(=O)[C@H](CO)NC(=O)[C@H](Cc1c[nH]c2ccccc12)NC(=O)[C@@H](NC(=O)[C@H](CO)NC(=O)[C@H](CCCC)NC(=O)CNC(=O)[C@H](CCC(=O)O)NC(=O)C(C)(C)NC(=O)C(C)(C)NC(=O)[C@@H](NC(=O)[C@H](C)NC(=O)[C@H](C)NC(=O)[C@H](CCCNC(=N)N)NC(=O)[C@@H](NC(=O)[C@H](CCCCN)NC(=O)[C@H](CCC(=O)O)NC(=O)[C@H](CCCNC(=N)N)NC(=O)CNC(=O)[C@H](CCC(=O)O)NC(=O)[C@H](CC(C)C)NC(=O)[C@H](CCC(=O)O)NC(C)=O)C(C)C)[C@@H](C)CC)[C@@H](C)O)C(N)=O)C(=O)O)C(=O)O)C(=O)O) [peptide of SEQ ID NO: 6] | 18 | 100
9 | Ac-LEGREKVRAQI[Aib][Aib]EG[Nle]STWS[Aib]RKK([PEG2′-PEG2′-γGlu-γGlu-γGlu-Palmitoyl])-NH2 [peptide of SEQ ID NO: 58] | 14.8 | 83
10 | Ac-LEGREKVRAQI[Aib][Aib]EG[Nle]STWS[Aib]RKK([PEG2′-Palmitoyl])-NH2 [peptide of SEQ ID NO: 50] | 75.9 | 95
11 | Ac-LEGREKVRAAI[Aib][Aib]EG[Nle]STWS[Aib]RKK(Palmitoyl)-NH2 (SMILES CCCCCCCCCCCCCCCC(=O)NCCCC[C@H](NC(=O)[C@H](CCCCN)NC(=O)[C@H](CCCNC(=N)N)NC(=O)C(C)(C)NC(=O)[C@H](CO)NC(=O)[C@H](Cc1c[nH]c2ccccc12)NC(=O)[C@@H](NC(=O)[C@H](CO)NC(=O)[C@H](CCCC)NC(=O)CNC(=O)[C@H](CCC(=O)O)NC(=O)C(C)(C)NC(=O)C(C)(C)NC(=O)[C@@H](NC(=O)[C@H](C)NC(=O)[C@H](C)NC(=O)[C@H](CCCNC(=N)N)NC(=O)[C@@H](NC(=O)[C@H](CCCCN)NC(=O)[C@H](CCC(=O)O)NC(=O)[C@H](CCCNC(=N)N)NC(=O)CNC(=O)[C@H](CCC(=O)O)NC(=O)[C@H](CC(C)C)NC(C)=O)C(C)C)[C@@H](C)CC)[C@@H](C)O)C(N)=O) [peptide of SEQ ID NO: 1] | 85.3 | 85
12 | Ac-LEGREKVRAQI[Aib][Aib]EG[Nle]STWS[Aib]RKK(Ac)K([PEG2′-PEG2′-PEG2′-Stearoyl])-NH2 [peptide of SEQ ID NO: 52] | 56 | 98
13 | Ac-LEGREKVRAQI[Aib][Aib]EGMSTWS[Aib]RKK([γGlu-γGlu-γGlu-Palmitoyl])-NH2 (SMILES CCCCCCCCCCCCCCCC(=O)N[C@@H](CCC(=O)N[C@@H](CCC(=O)N[C@@H](CCC(=O)NCCCC[C@H](NC(=O)[C@H](CCCCN)NC(=O)[C@H](CCCNC(=N)N)NC(=O)C(C)(C)NC(=O)[C@H](CO)NC(=O)[C@H](Cc1c[nH]c2ccccc12)NC(=O)[C@@H](NC(=O)[C@H](CO)NC(=O)[C@H](CCSC)NC(=O)CNC(=O)[C@H](CCC(=O)O)NC(=O)C(C)(C)NC(=O)C(C)(C)NC(=O)[C@@H](NC(=O)[C@H](CCC(N)=O)NC(=O)[C@H](C)NC(=O)[C@H](CCCNC(=N)N)NC(=O)[C@@H](NC(=O)[C@H](CCCCN)NC(=O)[C@H](CCC(=O)O)NC(=O)[C@H](CCCNC(=N)N)NC(=O)CNC(=O)[C@H](CCC(=O)O)NC(=O)[C@H](CC(C)C)NC(C)=O)C(C)C)[C@@H](C)CC)[C@@H](C)O)C(N)=O)C(=O)O)C(=O)O)C(=O)O) [peptide of SEQ ID NO: 7] | 17.6 | 87

Second part, the binder after the results:

Row | EC50 (nM), OVCAR 5 cells (cAMP) [nM] | EMax, OVCAR 5 cells (cAMP) [%] | Binder
14 | 28.2 | 85 | Ac-LEGREKVRAK(Ac)I[Aib][Aib]EG[Nle]STWS[Aib]RKK([PEG2′-PEG2′-γGlu-γGlu-γGlu-Palmitoyl])-NH2 [peptide of SEQ ID NO: 59]
15 | 0.12 | 93 | Ac-LEGREKVRAK(Ac)I[Aib][Aib]EG[Nle]STWS[αMeK]RKK(Ac)K([PEG2″-PEG2″-PEG2″-γGlu-γGlu-γGlu-γGlu-Palmitoyl])-NH2 [peptide of SEQ ID NO: 65]
16 | 0.2 | 81 | Ac-LEGREKVRAK(Ac)I[Aib][Aib]EG[Nle]STWS[Aib]RKK(Ac)K([PEG2″-PEG2″-PEG2″-PEG2″-γGlu-γGlu-γGlu-Palmitoyl])-NH2 [peptide of SEQ ID NO: 64]
17 | 1.14 | 87 | Ac-LEGREKVRAK(Ac)I[Aib][Aib]EG[Nle]STWS[Aib]RKK(Ac)K([PEG2′-PEG2′-γGlu-γGlu-γGlu-Palmitoyl])-NH2 [peptide of SEQ ID NO: 62]
18 | 0.11 | 91 | Ac-LEGREKVRAK(Ac)I[Aib][Aib]EG[Nle]STWS[Aib]RKKK([PEG2′-PEG2′-γGlu-γGlu-γGlu-Palmitoyl])-NH2 [peptide of SEQ ID NO: 60]
19 | 0.84 | 80 | Ac-LEGREKVRAK(Ac)I[Aib][Aib]EG[Nle]STWS[Aib]RKK(Ac)K([PEG2′-PEG2′-PEG2′-γGlu-γGlu-γGlu-Palmitoyl])-NH2 [peptide of SEQ ID NO: 63]
20 | 0.17 | 93 | Ac-LEGREKVRAK(Ac)I[Aib][Aib]EGK(Ac)STWS[Aib]RKKK([PEG2′-PEG2′-γGlu-γGlu-γGlu-Palmitoyl])-NH2 [peptide of SEQ ID NO: 61]
